The target of experiment [1] is Fam (endogenous, MDCKII cells) (dog (endogenous in MDCKII)). Briefly: co-IP.
In another experiment the target is GST-AF-6 (1130–1612 aa). Put plainly: pull-down.

The stoichiometry N is the number of molecules, sites or subunits per partner or assembly. In turn, “AF-6 (endogenous, MDCKII cells) (natural protein)” came in with a stoichiometry N in experiment [1] of 0.1 AF-6 per Fam.

As a reminder, the Kd is the concentration at which binding is half-saturated. In the case of “MBP-Fam (1476–1918 aa) (domain or fragment)”, the Kd in the experiment with GST-AF-6 (1130–1612 aa) was determined as 810 nM.

(Values after article PMC2132865.)
